Reference: article PMC8355190

Molecular target: PKM2 (human (endogenous in H1650)) (UniProt P14618)
Assay: cross-linking

Sequence of PKM2, P14618 1-531 (enzyme; other documents disagree on this pair) (P14618 whole entry): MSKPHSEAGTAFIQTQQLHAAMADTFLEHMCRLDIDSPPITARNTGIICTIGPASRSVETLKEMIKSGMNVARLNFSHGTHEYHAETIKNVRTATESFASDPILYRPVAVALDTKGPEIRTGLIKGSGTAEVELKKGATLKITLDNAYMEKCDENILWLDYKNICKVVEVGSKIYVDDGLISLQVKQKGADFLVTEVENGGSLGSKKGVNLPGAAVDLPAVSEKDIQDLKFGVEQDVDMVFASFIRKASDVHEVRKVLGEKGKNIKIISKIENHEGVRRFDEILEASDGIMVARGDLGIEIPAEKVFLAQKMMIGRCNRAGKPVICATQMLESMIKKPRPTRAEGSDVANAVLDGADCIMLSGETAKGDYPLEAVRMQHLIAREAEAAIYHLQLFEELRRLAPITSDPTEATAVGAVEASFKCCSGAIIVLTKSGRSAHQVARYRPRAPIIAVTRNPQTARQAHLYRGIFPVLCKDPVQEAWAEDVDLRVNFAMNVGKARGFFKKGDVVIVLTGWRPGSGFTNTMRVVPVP

stoichiometry N: 2
Substance: PKM2, P14618 1-531 (enzyme; other documents disagree on this pair)
